Consider one substance from publication PMC7775154.

The assay concerns the target catalase (human) (UniProt P04040).
Chain of UniProt P04040 (P04040 5-501): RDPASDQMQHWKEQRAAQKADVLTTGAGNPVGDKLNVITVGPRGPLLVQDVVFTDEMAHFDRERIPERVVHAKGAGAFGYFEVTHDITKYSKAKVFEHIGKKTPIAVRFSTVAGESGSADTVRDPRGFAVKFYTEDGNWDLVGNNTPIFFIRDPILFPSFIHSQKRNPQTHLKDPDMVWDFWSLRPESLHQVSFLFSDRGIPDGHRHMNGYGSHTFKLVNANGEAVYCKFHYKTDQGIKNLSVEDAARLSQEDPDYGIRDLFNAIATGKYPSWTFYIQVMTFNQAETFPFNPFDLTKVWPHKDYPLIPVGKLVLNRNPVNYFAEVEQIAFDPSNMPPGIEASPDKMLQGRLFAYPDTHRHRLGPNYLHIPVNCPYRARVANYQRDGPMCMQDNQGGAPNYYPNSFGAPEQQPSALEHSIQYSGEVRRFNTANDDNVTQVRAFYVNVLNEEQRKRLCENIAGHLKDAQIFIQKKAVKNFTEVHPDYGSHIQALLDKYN

Substance “Aβ42 E22K (Italian type mutation, glutamic acid 22-to-lysine) (peptide)” returned an H2O2 level in the blood of healthy controls after a 2 h incubation with E22K (H2O2 kit) of 86.5.
